Data reported in publication PMC4491180.

Legend:
[1] = target: wild-type Grb2 (growth factor receptor-bound protein 2), bacterially expressed and purified (UniProt P62993); experiment: MST; monomer–dimer equilibrium of Grb2 in the presence of the SOS1 peptide (…); apparent Kd, dimer to monomers
[2] = target: wild-type Grb2 (growth factor receptor-bound protein 2), bacterially expressed and purified (UniProt P62993); experiment: MST; unlabelled Grb2 (7.3 nM to about 30 μM) titrated into 100 nM Atto488-labelled Grb2; 20 °C; PBS without calcium and magnesium, 0.01% Tween 20; apparent Kd, dimer to monomers

Kd [1]: 700 nM | Kd [2]: 760 nM
Substance: wild-type Grb2 (growth factor receptor-bound protein 2), bacterially expressed and purified (from UniProt P62993 1-217) (natural protein)
